{"source": "the supplement of paper PMC12764529", "key": {"[1]": {"assay": "folding stability dG unfold (combined trypsin and chymotrypsin); higher = more stable", "how_it_was_run": "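Bayesian fitting of sequencing counts gave K50 for each design. Unfolding free energy followed by setting this against a sequence-predicted unfolded-state K50 and a shared folded-state K50, either per protease or with trypsin and chymotrypsin combined. The designs, under 80 residues and lacking cysteine, were digested in a PA-tagged cDNA display format at 11 threefold-diluted protease concentrations and without protease, and only those with AlphaFold2 dimer inter-PAE above 15 were kept.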"}, "[2]": {"assay": "folding stability dG unfold from chymotrypsin proteolysis; higher = more stable", "procedure": "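Folding stability of de novo designed mini-proteins (<80 aa, no Cys; designed by TrROS, TrMRF, ProteinMPNN and the joint model) was measured by cDNA display proteolysis with trypsin and chymotrypsin. Each protease was used at 11 concentrations in a threefold dilution series plus a no-protease condition. K50 was inferred by Bayesian fitting of sequencing counts, and dG unfold was derived against a sequence-predicted unfolded-state K50 (Tsuboyama et al. method). Sequences shown include variable-length N-terminal GS-type padding (SAGGSAGG...) inside a display construct carrying a PA tag. Rows were kept only if the AF2 dimer inter-PAE was >15, to exclude likely homo-oligomers.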"}}, "note": "± gives the half width of the 95% confidence interval."}
{"sequence": "SAGGSAGGSAGGSAVEVDPNGGVTRTRYPGGAVRLETVSPTPDGSLATRTEEVELPGLASAGGSAGGSAGGS [r4_248_JUSTAS]", "values": [{"measurement": "folding stability dG unfold", "setting": "[1]", "value": "1.69 ± 0.213", "unit": "kJ/mol"}, {"measurement": "folding stability dG unfold", "setting": "[2]", "value": "3.65 ± 0.0544", "unit": "kJ/mol"}]}
{"sequence": "SAGGSAGGSAGPKSIPLDNATVTEFDSPNGDKVFIFSHPNKKKRLAILKDGKLVKEIPIESAGGSAGGSAGG [r11_1038_TrMRF]", "values": [{"measurement": "folding stability dG unfold", "setting": "[1]", "value": "-1.09 ± 1.26", "unit": "kJ/mol"}, {"measurement": "folding stability dG unfold", "setting": "[2]", "value": "0.38 ± 1.3", "unit": "kJ/mol"}]}
{"sequence": "SAGGSAGGSAGGAMPNDVKVTTTTFTGTETLTLTDASGTPTSSTKTVTTTRTSVFPDTTSAGGSAGGSAGGS [r10_1212_JUSTAS]", "values": [{"measurement": "folding stability dG unfold", "setting": "[1]", "value": "1.3 ± 0.544", "unit": "kJ/mol"}, {"measurement": "folding stability dG unfold", "setting": "[2]", "value": "3.07 ± 0.418", "unit": "kJ/mol"}]}
{"sequence": "SAGMVKINVAKLPDGKYVITVVDANDGTPLLELPVDSPEGAEKAAKAIAEELKKKYPDATVEVDYTDFESAG [r5_383_TrMRF]", "values": [{"measurement": "folding stability dG unfold", "setting": "[1]", "value": "17.3 ± 2.68", "unit": "kJ/mol"}, {"measurement": "folding stability dG unfold", "setting": "[2]", "value": "14.6 ± 0.795", "unit": "kJ/mol"}]}
{"sequence": "SAGGSAGGSAGGSMVYRVVLEPESGERVEFEVTYDEAEELLEKLPPNARLRIEPVPEDASAGGSAGGSAGGS [r4_63_TrMRF]", "values": [{"measurement": "folding stability dG unfold", "setting": "[1]", "value": "-0.31 ± 0.711", "unit": "kJ/mol"}, {"measurement": "folding stability dG unfold", "setting": "[2]", "value": "1.11 ± 0.544", "unit": "kJ/mol"}]}
{"sequence": "SAGGSAGGSAGGIYIPLEDLEKNGLGFEELVEKLGVDVEIEVLETEPGKPVAKIRPKLGSAGGSAGGSAGGS [r10_855_TrMRF]", "values": [{"measurement": "folding stability dG unfold", "setting": "[1]", "value": "1.82 ± 0.389", "unit": "kJ/mol"}, {"measurement": "folding stability dG unfold", "setting": "[2]", "value": "4.05 ± 0.113", "unit": "kJ/mol"}]}
{"sequence": "SMSIKRARLRPEEIEAEIAALEAQGLRVKREPLEVTPVEVPLKLPDGTPRRVEVVEVVFRLELTPLDQPPSA [r9_991_JUSTAS]", "values": [{"measurement": "folding stability dG unfold", "setting": "[1]", "value": "< -4.18", "unit": "kJ/mol"}, {"measurement": "folding stability dG unfold", "setting": "[2]", "value": "-1.81 ± 2.01", "unit": "kJ/mol"}]}
{"sequence": "SAGPLEELLARAERVEEDPSTGKRLVYTSDPELVRAALAEGAPDYTLTESPDDRRSALINFPPLPPGVLSAG [r14_115_JUSTAS]", "values": [{"measurement": "folding stability dG unfold", "setting": "[1]", "value": "-0.0523 ± 0.586", "unit": "kJ/mol"}, {"measurement": "folding stability dG unfold", "setting": "[2]", "value": "1.34 ± 0.586", "unit": "kJ/mol"}]}
{"sequence": "SAGGSAMSRTITVEITDPRNGKKLKNVVIDVPEDEDISDEEILKKIGIPEKEAKNIKVSKTTEELESAGGSA [r15_665_JUSTAS]", "values": [{"measurement": "folding stability dG unfold", "setting": "[1]", "value": "0.708 ± 0.795", "unit": "kJ/mol"}, {"measurement": "folding stability dG unfold", "setting": "[2]", "value": "1.53 ± 0.711", "unit": "kJ/mol"}]}
{"sequence": "SAGGSAGGSAGGMPPRLVEIPIFVPPTDPARAEALAEELREELGAEEVVVRIVLAPPGLGSAGGSAGGSAGG [r7_632_JUSTAS]", "values": [{"measurement": "folding stability dG unfold", "setting": "[1]", "value": "1.73 ± 0.301", "unit": "kJ/mol"}, {"measurement": "folding stability dG unfold", "setting": "[2]", "value": "4.11 ± 0.0544", "unit": "kJ/mol"}]}
{"sequence": "SAGGSAGGSAGMTSTVTEVRPGSDSWTVTVTYSENSSTKTQTLTVPAGPTVRSGLPSVVSSAGGSAGGSAGG [r11_921_JUSTAS]", "values": [{"measurement": "folding stability dG unfold", "setting": "[1]", "value": "-1.82 ± 0.962", "unit": "kJ/mol"}, {"measurement": "folding stability dG unfold", "setting": "[2]", "value": "0.876 ± 0.628", "unit": "kJ/mol"}]}
{"sequence": "SAGGSAGGSMPVTVTVTTPDGTTQTLTADAPPAQTFTVTVTGPDGDPRPVRVTVHGTTVTVEGSAGGSAGGS [r12_784_TrMRF]", "values": [{"measurement": "folding stability dG unfold", "setting": "[1]", "value": "< -4.18", "unit": "kJ/mol"}, {"measurement": "folding stability dG unfold", "setting": "[2]", "value": "0.948 ± 0.92", "unit": "kJ/mol"}]}
{"sequence": "SAGGSVVTGVDEEELRAVAEALRAAGHTLADVRIERYPEDGTYRMTVTLVDPATAAPLADVLMVAKASAGGS [r16_750_JUSTAS]", "values": [{"measurement": "folding stability dG unfold", "setting": "[1]", "value": "1.3 ± 0.628", "unit": "kJ/mol"}, {"measurement": "folding stability dG unfold", "setting": "[2]", "value": "3.71 ± 0.544", "unit": "kJ/mol"}]}
{"sequence": "SAGGMTIEVPDGFRIDGFRPFPDGRSAVLVRYKGTGKVEIFPFGDRVPEASADEPVEVEVVPIPPELLSAGG [r13_173_TrMRF]", "values": [{"measurement": "folding stability dG unfold", "setting": "[1]", "value": "-1.48 ± 0.586", "unit": "kJ/mol"}, {"measurement": "folding stability dG unfold", "setting": "[2]", "value": "0.647 ± 0.879", "unit": "kJ/mol"}]}
{"sequence": "SAGGSAGGSAGGGEYAKIKIKNPINPKYKEIEIEIPSNKKNVIINATGSGNATITEIKLESAGGSAGGSAGG [r7_687_TrMRF]", "values": [{"measurement": "folding stability dG unfold", "setting": "[1]", "value": "-2.44 ± 2.05", "unit": "kJ/mol"}, {"measurement": "folding stability dG unfold", "setting": "[2]", "value": "0.741 ± 1.13", "unit": "kJ/mol"}]}
{"sequence": "SAGVKIKWEPIDRDPKNGHVYYSITIKVPKDGKPLDEIPIGMYQFDNDDGKWEPMPEEDIKQQAKDLLNSAG [r5_909_TrROS]", "values": [{"measurement": "folding stability dG unfold", "setting": "[1]", "value": "-1.74 ± 2.18", "unit": "kJ/mol"}, {"measurement": "folding stability dG unfold", "setting": "[2]", "value": "0.271 ± 1.42", "unit": "kJ/mol"}]}
{"sequence": "SMTPEVSVITLRPVEVKKVGEVPVVTLEVTEVENAPEELLEKVKAGAKLTIEVPKDEPIEPDEEIEVVLPSA [r9_557_JUSTAS]", "values": [{"measurement": "folding stability dG unfold", "setting": "[1]", "value": "-2.95 ± 1.13", "unit": "kJ/mol"}, {"measurement": "folding stability dG unfold", "setting": "[2]", "value": "0.612 ± 0.418", "unit": "kJ/mol"}]}
{"sequence": "SAGGSVTLPPEEARAYAEAHPDRDLVLSMRPDDSTVTLELSVDPAAPGALSVRRREVFDPAGNATVVDSAGG [r13_481_JUSTAS]", "values": [{"measurement": "folding stability dG unfold", "setting": "[1]", "value": "-0.761 ± 0.628", "unit": "kJ/mol"}, {"measurement": "folding stability dG unfold", "setting": "[2]", "value": "1.29 ± 0.544", "unit": "kJ/mol"}]}
{"sequence": "SAGGMKTSPIGTFPLPDPSNGALADTVTIENPKEIIKKSNKEIVKVTVTTTAPDGTPTTTDEIIIIKNSAGG [r13_735_JUSTAS]", "values": [{"measurement": "folding stability dG unfold", "setting": "[1]", "value": "0.618 ± 1.26", "unit": "kJ/mol"}, {"measurement": "folding stability dG unfold", "setting": "[2]", "value": "2.29 ± 0.276", "unit": "kJ/mol"}]}
{"sequence": "SAGGSAMFTSSTSTDPATGLRRTTTLFPDSSAAVTTTVAVPPVPPLSPEAVAAGEAAAAAGRPPAVSAGGSA [r15_631_JUSTAS]", "values": [{"measurement": "folding stability dG unfold", "setting": "[1]", "value": "< -4.18", "unit": "kJ/mol"}, {"measurement": "folding stability dG unfold", "setting": "[2]", "value": "2.47 ± 0.711", "unit": "kJ/mol"}]}
